Data: the nanobody polyreactivity screen of Harvey et al. (2022)

assay: yeast display, Sf9 membrane polyspecificity reagent, FACS + sequencing; frameworks hold sequencing errors
In short: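 After 36–48 hours of galactose induction, yeast (Saccharomyces cerevisiae BJ5465) displaying a synthetic nanobody library were stained at 4 °C for 1 hour with 10% biotinylated, detergent-solubilized Sf9 membrane reagent. Streptavidin microbeads enriched the stained cells before FACS sorting into low and high (top ~1%) gates on anti-HA and streptavidin fluorescence. Each clone's polyreactivity label reflects its gate of origin.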

Sequence	polyreactivity (PSR sort gate)
QVQLVESGGGLVQAGGSLRLSCAASGSIFFHNAMGWYRQAPGKERELVAAITSSGGRTYYADSVKGRFTISRDNAKNTVYLQMNSLKPEDTAVYYCDASPYGFRRNYYWGQGTQVTVSS	high polyreactivity
QVQLVESGGGLVQAGGSLRLSCAASGSIFDIYAKGRSRQAPGKERELVAAISSGGSTTYADSVKGRFTISRDNAKNTVYFQMNCLTPEDTAVYYCATAYTPFAYLVTEMDYWGQGTQVTVLS	low polyreactivity
QVQLVESWGGLVQAGRSLRLSCAASGRTFYNYAMGWYRQAPGKERELVAAITRGGSTYYADSVKGRFTISRDNAKNTVYLHMNSLKPEDTAVYFCNAKYIKGRDWGQGTQVTVSS	high polyreactivity
QVQLVESGGGLVQAGGSLRLSCAASGRIFRANTMGWYRQAPGKERELVATSSKNGGRTYYADSVKGRFTISRDNAKNTVYLQMNSLKPEDTAVYYCNAEWRGWRFLEYGSYIYQSGYWGQGTQVTVSS	high polyreactivity
QVQLVESGGGLVQEGGSLRLSCAASGFTIFQYAMGWYRQAPGKERELVATITSAGSTNYADSVKGRFTISLDNAKNTVYLQMNSLIPEDTAVYYCNTKKLPYAEGYWGQGTQVSVSS	low polyreactivity
QVQLVESGGCLVQAGCSHRLSCAASGSTFGHNAMGWYRQAPGKERELVAAISWSGGRTSYADSVKGRFTISRDHAKNTVYLQLNSLKPEDTAVYYCAARSWRKGDYWGQGTQVTVSS	high polyreactivity
QVQLVDSGGCLFQAGGTLRLSCAASGFTLRAYAMGWYRQGPGKEREFVAVISRSDGSTYYADTVKGRFTISRENAKNTVYLQMNSLKPEDSAVYYCADKHRGAKYDYWGQGTQVTVSS	low polyreactivity
QVQIVESGGGLVQAGGSLRFSCAASGRTFWLNDMGWYRHAPGKERELVARISRRGGSTYYAHSVKGRFTISRDHAKNTVYLQIISLKPEDTAVYYCAAAIVTRSYKYDYWGQGTQVTVSS	high polyreactivity
QVQLVESGGGLVQAGGSLRLSCAASGRIFRYNTMGRNRHAPGKEREFVAAISYRGASTYYADSVKGRFTISRDNAKNNVYLQMNSLKPEDTAVYYCAAVTISKGFYPYDYWGQGTQVSVSS	high polyreactivity
QVQLVESGGGLVQAGGSLRLSCAASGSIFTRNAMGWYRQAPGKEREFVAAISSSGVSTYYADSVKGRFTISRDNAKNTVYLQMNSLKPEDTAVYYCAARWGTKSGRYDYWGQGTQVTVSS	high polyreactivity
QVQLVESGGGLVQAGGSLRLSCAASGSIFVRNGMGWYRQAPGKDRELVASITSGTITYYADSVKGRFTISRDNAKNTVYLQMNSLKPEDTAVYDCNAGWRSSRFKRPYFRERNYWGQGTQLTVSS	high polyreactivity
QVQLVESGGGLVQAGGSLRLSCAASGSTFPHNPMGCYRQAPGKERELVAAISSIGVRTYYADSVKGRFTISRDNAKNTVYLQMNSLKPEDTAVYYCAARQSQGDRYYYWGHGTQVTVSS	high polyreactivity
QVQLVESGGGLVQAGGSLRLSCAASGLIFQWYAMGWYRQAPGKERELVAAITGSGGSTYYADSVKGRFTISRDNAKNTVYLQMNSLKPEDTAVYYCNAGASRRYGYWGQGTQVTVSS	high polyreactivity
QVQLVESGGGLVQAGGSLRLSCADSGSTFNIYAMGWYRQAPGKERELVAAISSGGTTYYADSVKGRFTISRDNAKNTVYLQMNSLKPEDTAVYYCAALTSSLPAYGYWGQGTQVTVSS	low polyreactivity
QLQLVESGRGLVQAGGSLRLRCAASGRTFNRYTMGGYRQAPGKERELVAAISRGAGTNYADSVKGRFTISRDNAKYTVYLQMKSLKPEDTAVYYCAAGYEIGYRTGRSGNTAHIYYWGQGTQVTVSS	high polyreactivity
QVQLVESGGGLVQAGGSLRLSCAASGRIFYPYVMGWYRQAPGKERELVAAISDTTGSTYYADSVKGRFTISRDNAKNTVYLQMNSLKPEDTEVFYCAAGWFYATYWRFYYWGQGTQVTVSS	low polyreactivity

Sequence	polyreactivity (PSR sort gate)
EEELVESGGGLVQAGGSLRLSCAASGRTFARNAMGWYRQAPGKERELVAGINFSGGNTYYADSVKGRFTISRDNAKNTVYLQMNSLKPEDTEVYYCAPRRYWEGDYWGQGTQVTVSS	low polyreactivity
QVQLVESGGGLVQAGGSLRLICDASGIIFYDYAMGWYRQAPGKERELVAAITSSGGSTYYADSVKGRFTISRDNAKNTVYLQMNSLKPEDTAVYYCAAATRGSGRRYDYWGQGTQVTLSS	high polyreactivity
QVQLVESGGALVQAGGSLRLSCAASGSIFSRNAMGWYRTAPGKERELVAGISTGGSTNYADSVKGRFTISRDNAKNTVYLQMTSLKPEDTAVYYCAAPLAYEGDYWGQGTQVTVSS	low polyreactivity
QVQLVESWGGLVQAGGSLRLSCSAYGYTFTLTPMGWSRQAPGKERELVAAISRSGGSTYYADSVKGRFTISRDNAKNTVYLQMISLKPEDTAVYYCDADGYSGYDYWGQGTLVTVSS	low polyreactivity
QVQLVESGGGLVQAGGSLRLSCAASGSTFNVNAMGWYSQAPGKERELVATISSGGSTNYADSVKGRFTISRDNAKNTVYLQMNSLKPEDTAVYYCAKEYGSIIPYDYWGQGTQVTVSS	low polyreactivity
QVQLVESGGGLVQAGGSLRLSCAASGSTFPPYVIGWYRPAPGKERELVAAITWSSGSTYYADSVKGRFTISRDNAKNTVYLQMNSLKPEDTAVYYCAARAYRWGQGTQVTVSS	low polyreactivity
QVQLVESGGGLVQAGGSLRLSCGASGRIFYYYVMGWSRQGPGKERELVAVIDWSGGSTYYADSVKGRFTISRDNAKNTVYLQMNSLKPEDTAVYYCAKVWLKFSLAYEDYVYWGQGTQVTVSS	low polyreactivity
QVQLVASGGGLVQAGGSLRLSCAASGSTLDVYAMGWYRQAPGKERELVASISGSGGRTYYADSVKGRFTISRDNAKNTVYLQLNSQNPEDTAVYYCAADVRSYVASRSYRYDYWGQGNQVTVSS	low polyreactivity
QVQLVESGGGLVQAGGSLRLSCAASGFTFLRYAMGWYRQAPGKERELVAGITSRGASTYYADSVKGRFTISRDNAKTTVYLQINSLKPEDTAVYYCAADGSHTRYRYDYWGQGTQVTVSS	high polyreactivity
QVQLVESGGGLVQAGGSLRLSCAASGRTFRWYAMGWYRQAPGKERELVAAITGGGRTYYADSVKGSFTISRDYAKNTVYLQMNSLKPEDTAVYYCNKYPSSGNYINAYDYWGQGTQVTVSS	high polyreactivity
QVQLVESGGGLVQAGGSLRLSCAASGFTFLYYDMGWYRQAPGKERELVAAITNDDSTYYADSVKGRFTISRDNAKNTVYLQMNSLKPEDTAVYYCAADSVYGSDEYWGQGTQVTVSS	high polyreactivity
QVQLVESGGGLVQAGGSLRLSCAASGRTFSYYGMGWYRQAPGKERELVAAITNSVGRTYYADSVKGRFTISRDNEKNTVYLHMNSLKPEDTAVYYCKKYGRYYYWGQGTQVTVSS	low polyreactivity
QVQLVESGGGLVQAGGSLRLSCAASGSIFEYYAMGWYRQAPGKERELVATITTRGGSTYYADSVKGRFTLSRDNAKNTVSLQMKCLKPEDTAVYYCNARAAYYGRGTLLRRNYWGQGTQVTVSS	high polyreactivity
QVHLVESGGGLVQAGGSLRLSCAASGRLSQNAMGGYRQAPGKERELVAAITFSGGSTYYADSVKGRFTISRDNAKNTVYLQMNSLKPEDTAVYYCAADDRPLYWRFPDEMDYWGQGTQVTVSS	low polyreactivity
QVQLVESGGGLVQAGGSLRLSCAASGSTFYLNAKGWYRQAPGKERELVAASSSSGGSTYYADSVKGRFTISRDNAKNTVYLQMNSLKPEDTAVYYCACSCVPAVSVYGGDYWGQGTQVTVSS	low polyreactivity
QVQLVESGGGLVQAGGSLRLSCAASGITFTDNTMGWYRQAPGKERELVAAISRSGTSTYYADSVKGRFTISRDNAKNTVYLQMNSLKPEDTAVYYCAALSYVPSPYYYWGQGTQVTVSS	high polyreactivity
